# Patent US20170158755A1 (PROTHENA BIOSCIENCES, published 2017)
# Positions count from the first letter of the chain named.
# T1: mouse MCAM-Fc fusion protein (mouse; human, UniProt Q8R2Y2 24-563)
# T1 construct: extracellular domain; Made in house; also called mMCAM-Fc; 650-conjugated mouse MCAM-Fc; not shown: human IgG1 (Fc part of the fusion)
# T1 sequence (looked up): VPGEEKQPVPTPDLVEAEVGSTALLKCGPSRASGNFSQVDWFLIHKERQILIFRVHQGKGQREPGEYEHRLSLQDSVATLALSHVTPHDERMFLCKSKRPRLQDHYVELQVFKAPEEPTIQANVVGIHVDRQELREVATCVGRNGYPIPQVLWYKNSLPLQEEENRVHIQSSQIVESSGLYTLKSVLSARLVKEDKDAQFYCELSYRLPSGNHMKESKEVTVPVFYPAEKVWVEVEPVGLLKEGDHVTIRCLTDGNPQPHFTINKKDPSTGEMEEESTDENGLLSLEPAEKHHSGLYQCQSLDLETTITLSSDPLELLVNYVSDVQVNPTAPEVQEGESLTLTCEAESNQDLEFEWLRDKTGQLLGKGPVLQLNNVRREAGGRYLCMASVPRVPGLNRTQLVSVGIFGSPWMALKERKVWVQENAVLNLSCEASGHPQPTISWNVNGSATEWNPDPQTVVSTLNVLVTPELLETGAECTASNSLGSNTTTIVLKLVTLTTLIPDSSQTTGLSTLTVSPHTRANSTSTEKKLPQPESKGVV
# T2: human LAMA4 G domain (LG1-5) displayed on 293 cells (human, UniProt Q16363 830-1821)
# T2 construct: the vector's tags and membrane anchor are not written here; also called LAMA4-displaying human 293 cells; full length
# T2 sequence: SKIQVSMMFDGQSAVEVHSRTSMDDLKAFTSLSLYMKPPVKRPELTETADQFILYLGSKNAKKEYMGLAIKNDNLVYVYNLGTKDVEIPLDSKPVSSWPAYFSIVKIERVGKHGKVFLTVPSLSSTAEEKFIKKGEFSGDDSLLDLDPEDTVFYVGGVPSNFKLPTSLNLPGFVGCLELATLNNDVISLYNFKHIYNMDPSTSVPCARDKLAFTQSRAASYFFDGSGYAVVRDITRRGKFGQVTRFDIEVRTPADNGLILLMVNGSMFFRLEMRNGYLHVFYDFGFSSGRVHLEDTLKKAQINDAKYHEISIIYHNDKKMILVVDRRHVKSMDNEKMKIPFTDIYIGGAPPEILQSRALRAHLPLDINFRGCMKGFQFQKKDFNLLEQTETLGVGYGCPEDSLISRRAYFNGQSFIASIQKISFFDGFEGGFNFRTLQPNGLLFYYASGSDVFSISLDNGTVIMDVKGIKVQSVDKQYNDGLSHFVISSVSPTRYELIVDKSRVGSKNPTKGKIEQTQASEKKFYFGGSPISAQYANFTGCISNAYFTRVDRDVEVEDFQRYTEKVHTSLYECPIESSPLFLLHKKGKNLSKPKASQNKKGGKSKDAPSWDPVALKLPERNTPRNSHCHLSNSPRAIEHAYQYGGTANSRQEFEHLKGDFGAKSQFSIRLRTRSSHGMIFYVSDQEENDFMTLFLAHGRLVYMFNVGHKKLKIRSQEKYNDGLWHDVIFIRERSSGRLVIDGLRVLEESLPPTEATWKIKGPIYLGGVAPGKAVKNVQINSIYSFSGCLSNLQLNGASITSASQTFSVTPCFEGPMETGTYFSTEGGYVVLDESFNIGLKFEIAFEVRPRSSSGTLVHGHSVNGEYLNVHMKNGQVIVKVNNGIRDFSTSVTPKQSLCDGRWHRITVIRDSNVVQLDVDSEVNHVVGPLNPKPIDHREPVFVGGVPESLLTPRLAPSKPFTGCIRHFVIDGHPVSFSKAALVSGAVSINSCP
# T3: human LAMA4 LG1-3 modules displayed on 293 cells (human, UniProt Q16363 830-1430)
# T3 construct: pDisplay construct on 293 cells; vector tags and anchor not written here
# T3 sequence: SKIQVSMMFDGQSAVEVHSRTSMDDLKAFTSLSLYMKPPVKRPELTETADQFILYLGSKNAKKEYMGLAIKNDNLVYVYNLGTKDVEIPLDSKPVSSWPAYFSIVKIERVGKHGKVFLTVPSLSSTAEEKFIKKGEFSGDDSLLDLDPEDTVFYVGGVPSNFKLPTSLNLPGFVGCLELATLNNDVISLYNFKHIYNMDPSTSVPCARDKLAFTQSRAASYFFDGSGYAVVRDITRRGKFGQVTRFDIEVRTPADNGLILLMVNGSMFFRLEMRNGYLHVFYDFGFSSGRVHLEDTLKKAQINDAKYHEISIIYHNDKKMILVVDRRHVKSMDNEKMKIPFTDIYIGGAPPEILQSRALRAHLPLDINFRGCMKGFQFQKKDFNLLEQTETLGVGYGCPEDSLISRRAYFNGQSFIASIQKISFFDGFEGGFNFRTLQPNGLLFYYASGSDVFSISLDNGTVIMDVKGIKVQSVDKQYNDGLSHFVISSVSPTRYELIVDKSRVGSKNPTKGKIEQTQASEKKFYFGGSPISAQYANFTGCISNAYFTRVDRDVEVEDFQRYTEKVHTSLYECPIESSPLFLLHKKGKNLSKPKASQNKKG
# B1: human LAMA4 LG4-5 modules displayed on 293 cells (ligand)
# chain: RNSHCHLSNSPRAIEHAYQYGGTANSRQEFEHLKGDFGAKSQFSIRLRTRSSHGMIFYVSDQEENDFMTLFLAHGRLVYMFNVGHKKLKIRSQEKYNDGLWHDVIFIRERSSGRLVIDGLRVLEESLPPTEATWKIKGPIYLGGVAPGKAVKNVQINSIYSFSGCLSNLQLNGASITSASQTFSVTPCFEGPMETGTYFSTEGGYVVLDESFNIGLKFEIAFEVRPRSSSGTLVHGHSVNGEYLNVHMKNGQVIVKVNNGIRDFSTSVTPKQSLCDGRWHRITVIRDSNVVQLDVDSEVNHVVGPLNPKPIDHREPVFVGGVPESLLTPRLAPSKPFTGCIRHFVIDGHPVSFSKAALVSGAVSINSCP
# notes: pDisplay construct on 293 cells; vector tags and anchor not written here
# B2: 19C12 variant H1+ChiL (antibody, V domains shown)
# VH: QVQLQQSGAELVKPGASVKISCKASGYAFSTYWMNWVKQAPGEGLEWIGQIYPGDGDTNYNGKFKGRVTLTADKSTSTAYMELSSLRSEDTAVYFCARSDGYYDYWGQGTTVTVSS
# VL: NIVLTQSPASLAVSLGQRATISCRASESVDSYGTSFMHWYQQKPGQPPKLLICLASSLESGVPARFSGSGSRTDFTLTIDPVEADDAATYYCQQNNEDPPTFGAGTKLELKR
# notes: Humanized heavy chain version 1 (Hu19C12VHv1) paired with the chimeric light chain; Human constant regions not specified
# B3: 19C12 variant H2+ChiL (antibody, V domains shown)
# VH: B2 VH with I20V, K38R, E43Q, L70I
# VL: B2 VL
# notes: Humanized heavy chain version 2 (Hu19C12VHv2) paired with the chimeric light chain; Human constant regions not specified
# B4: H2L5 (antibody, V domains shown)
# VH: B2 VH with I20V, K38R, E43Q, L70I
# VL: DIVLTQSPASLAVSLGERATISCRASESVDSYGTSFMHWYQQKPGQPPKLLISLASSLESGVPARFSGSGSGTDFTLTISPLQAEDVATYYCQQNNEDPPTFGQGTKLEIK
# notes: also called VHv2/VLv5; humanized 19C12 antibody H2L5; copies: 2 + 2
# B5: H3L3 (antibody, V domains shown)
# VH: B2 VH with Q1E, I20V, K38R, E43Q, L70I
# VL: B4 VL with D1N, S53C, G72R, S80D, L82V, Q83E, V87A, Q104A
# notes: also called VHv3/VLv3; humanized 19C12 antibody H3L3; copies: 2 + 2
# Assays:
# [1] = target: T1, mouse MCAM-Fc fusion protein; assay: flow cytometry on 293 cells displaying LAMA4 G-domain variants; % binding
# Source text: LGde1 has a full-length G domain (i.e., LG1-5) with LG1 deleted, LGde2 has a full-length G domain with LG2 deleted, and LGde3 has a full-length G domain with LG3 deleted. Recombinant MCAM-Fc protein was able to specifically bind 293 cells expressing LAMA4 variants LG1-5, LG1-3, and LGde 1 (LG23), but not 293 cells expressing LAMA 4 variants LG4-5, LGde2 (LG13), or LGde3 (LG12).
# [2] = target: T2, human LAMA4 G domain (LG1-5) displayed …; assay: flow cytometry on 293 cells displaying LAMA4 G-domain variants, anti-human-650 secondary antibody; MFI
# Procedure: (§1) The 19C12 variants chimeric 19C12, H1+chiL, and H2+chiL, and buffer alone were tested for their ability to block the binding of LAMA4 to its ligand MCAM (as shown in FIG. 11) and to bind LAMA4-displaying cells (full length, LG1-3, LG4-5, or untransfected control) (as shown in FIG. 12). […] To test LAMA4 binding capacity, serially diluted antibodies were pre-incubated with LAMA4-displaying human 293 cells, followed by anti-human-650 secondary antibody incubation. Fluorescent signal was assessed via flow cytometric analyses and plotted as mean fluorescence intensity (MFI).
# [3] = target: T3, human LAMA4 LG1-3 modules displayed on …; assay: as above
# Procedure: as §1
# [4] = target: B1; assay: as above
# Procedure: as §1
# recombinant laminin 411 [5] = target: T4, recombinant laminin 411 (human, UniProt P07942 22-1786; P11047 34-1609, limits assumed); assay: flow cytometric blocking assay; antibody pre-incubated with 650-labeled laminin 411; blocked partner: human MCAM on CHO cells; MFI
# T4 construct: also called LAMA4 in complex with its gamma1 and beta1 chains
# Procedure: as §1
# Following two washes with FACS buffer (1% FBS in PBS), cells were resuspended with 650-conjugated anti-pan-laminin antibody (1:1000; Novus Biologicals) and incubated for 20 min at 4° C., and washed again. Cells were analyzed for pan-laminin reactivity by flow cytometry using standard procedures.
# [6] = target: T2, human LAMA4 G domain (LG1-5) displayed …; assay: flow cytometry on LAMA4-displaying 293 cells, anti-human-650 secondary antibody; MFI (binding experiment by paragraph 395 and by the plot; the legend paragraph 38 calls it blocking)
# Procedure: (§2) Position L49 of the 19C12 variable light chain was substituted with other amino acids, such as I, T, A, M, Q, or E (see Table 6) because they may confer improved stability relative to substitution to a cysteine. The 19C12 cysteine replacement variants were tested for their ability to bind LAMA4-displaying cells (FIG. 13) and to block the binding of LAMA4 to its ligand MCAM (FIG. 14). To test LAMA4 binding capacity, serially diluted antibodies were pre-incubated with LAMA4-displaying human 293 cells, followed by anti-human-650 secondary antibody incubation. […] Fluorescent signal was assessed via flow cytometric analyses and plotted as mean fluorescence intensity (MFI). The 19C12 cysteine replacement variants retain their MCAM blocking and LAMA4 binding activity to varying degrees.
# recombinant laminin 411 [7] = target: T4, recombinant laminin 411; assay: flow cytometric blocking assay; antibody pre-incubated with 650-labeled laminin 411; blocked partner: human MCAM on CHO cells; MFI (blocking experiment by paragraph 395 and by the 411 / no 411 controls on the sheet; the legend paragraph 39 calls it binding)
# Procedure: as §2
# T4 sequence (chain, as listed by the source limits assumed, chain 1 of 3): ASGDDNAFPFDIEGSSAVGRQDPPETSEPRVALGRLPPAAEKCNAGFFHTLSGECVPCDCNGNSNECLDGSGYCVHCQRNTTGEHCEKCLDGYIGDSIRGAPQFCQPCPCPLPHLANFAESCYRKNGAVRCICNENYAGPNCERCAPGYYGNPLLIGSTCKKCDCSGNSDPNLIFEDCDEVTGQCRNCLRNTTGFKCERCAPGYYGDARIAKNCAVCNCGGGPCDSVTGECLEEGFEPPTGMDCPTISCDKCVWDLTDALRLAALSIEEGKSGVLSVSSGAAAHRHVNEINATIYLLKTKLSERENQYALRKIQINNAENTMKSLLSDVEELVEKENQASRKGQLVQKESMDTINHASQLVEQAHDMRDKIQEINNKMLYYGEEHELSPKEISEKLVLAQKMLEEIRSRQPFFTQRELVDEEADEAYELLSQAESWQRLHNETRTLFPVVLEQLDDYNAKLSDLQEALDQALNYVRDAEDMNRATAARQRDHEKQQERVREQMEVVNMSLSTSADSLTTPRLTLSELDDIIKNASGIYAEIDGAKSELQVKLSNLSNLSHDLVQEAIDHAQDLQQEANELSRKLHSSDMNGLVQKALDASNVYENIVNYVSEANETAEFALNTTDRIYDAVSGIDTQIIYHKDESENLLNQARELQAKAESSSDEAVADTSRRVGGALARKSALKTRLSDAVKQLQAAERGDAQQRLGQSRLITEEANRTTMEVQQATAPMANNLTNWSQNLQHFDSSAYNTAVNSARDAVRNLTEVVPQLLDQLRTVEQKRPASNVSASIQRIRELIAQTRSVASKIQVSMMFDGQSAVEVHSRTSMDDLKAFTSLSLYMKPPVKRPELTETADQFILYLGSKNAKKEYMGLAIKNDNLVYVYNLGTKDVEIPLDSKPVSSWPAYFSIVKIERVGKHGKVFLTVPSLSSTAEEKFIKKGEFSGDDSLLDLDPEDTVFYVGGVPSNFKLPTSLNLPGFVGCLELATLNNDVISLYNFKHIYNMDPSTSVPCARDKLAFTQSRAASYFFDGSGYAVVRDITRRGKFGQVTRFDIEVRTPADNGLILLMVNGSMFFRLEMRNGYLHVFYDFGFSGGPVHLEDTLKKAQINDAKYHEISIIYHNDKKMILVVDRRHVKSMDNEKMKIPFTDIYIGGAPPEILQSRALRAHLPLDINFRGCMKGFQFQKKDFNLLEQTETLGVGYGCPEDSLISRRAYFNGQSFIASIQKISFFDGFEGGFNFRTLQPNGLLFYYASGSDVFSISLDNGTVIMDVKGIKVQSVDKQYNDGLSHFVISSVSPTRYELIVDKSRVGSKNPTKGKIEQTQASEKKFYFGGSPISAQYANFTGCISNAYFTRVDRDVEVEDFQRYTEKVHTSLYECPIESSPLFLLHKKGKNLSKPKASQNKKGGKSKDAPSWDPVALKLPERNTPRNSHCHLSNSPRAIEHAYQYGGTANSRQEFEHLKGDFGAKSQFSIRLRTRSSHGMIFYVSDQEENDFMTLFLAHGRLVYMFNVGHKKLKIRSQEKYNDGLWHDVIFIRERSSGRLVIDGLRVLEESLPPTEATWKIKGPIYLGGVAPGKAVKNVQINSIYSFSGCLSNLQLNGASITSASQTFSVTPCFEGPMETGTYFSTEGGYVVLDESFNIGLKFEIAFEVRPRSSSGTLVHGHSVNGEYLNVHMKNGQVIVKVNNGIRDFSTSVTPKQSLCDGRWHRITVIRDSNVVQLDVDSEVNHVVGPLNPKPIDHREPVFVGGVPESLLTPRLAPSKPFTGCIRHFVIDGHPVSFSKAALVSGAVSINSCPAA
# T4 sequence (P07942 22-1786 limits assumed, chain 2 of 3): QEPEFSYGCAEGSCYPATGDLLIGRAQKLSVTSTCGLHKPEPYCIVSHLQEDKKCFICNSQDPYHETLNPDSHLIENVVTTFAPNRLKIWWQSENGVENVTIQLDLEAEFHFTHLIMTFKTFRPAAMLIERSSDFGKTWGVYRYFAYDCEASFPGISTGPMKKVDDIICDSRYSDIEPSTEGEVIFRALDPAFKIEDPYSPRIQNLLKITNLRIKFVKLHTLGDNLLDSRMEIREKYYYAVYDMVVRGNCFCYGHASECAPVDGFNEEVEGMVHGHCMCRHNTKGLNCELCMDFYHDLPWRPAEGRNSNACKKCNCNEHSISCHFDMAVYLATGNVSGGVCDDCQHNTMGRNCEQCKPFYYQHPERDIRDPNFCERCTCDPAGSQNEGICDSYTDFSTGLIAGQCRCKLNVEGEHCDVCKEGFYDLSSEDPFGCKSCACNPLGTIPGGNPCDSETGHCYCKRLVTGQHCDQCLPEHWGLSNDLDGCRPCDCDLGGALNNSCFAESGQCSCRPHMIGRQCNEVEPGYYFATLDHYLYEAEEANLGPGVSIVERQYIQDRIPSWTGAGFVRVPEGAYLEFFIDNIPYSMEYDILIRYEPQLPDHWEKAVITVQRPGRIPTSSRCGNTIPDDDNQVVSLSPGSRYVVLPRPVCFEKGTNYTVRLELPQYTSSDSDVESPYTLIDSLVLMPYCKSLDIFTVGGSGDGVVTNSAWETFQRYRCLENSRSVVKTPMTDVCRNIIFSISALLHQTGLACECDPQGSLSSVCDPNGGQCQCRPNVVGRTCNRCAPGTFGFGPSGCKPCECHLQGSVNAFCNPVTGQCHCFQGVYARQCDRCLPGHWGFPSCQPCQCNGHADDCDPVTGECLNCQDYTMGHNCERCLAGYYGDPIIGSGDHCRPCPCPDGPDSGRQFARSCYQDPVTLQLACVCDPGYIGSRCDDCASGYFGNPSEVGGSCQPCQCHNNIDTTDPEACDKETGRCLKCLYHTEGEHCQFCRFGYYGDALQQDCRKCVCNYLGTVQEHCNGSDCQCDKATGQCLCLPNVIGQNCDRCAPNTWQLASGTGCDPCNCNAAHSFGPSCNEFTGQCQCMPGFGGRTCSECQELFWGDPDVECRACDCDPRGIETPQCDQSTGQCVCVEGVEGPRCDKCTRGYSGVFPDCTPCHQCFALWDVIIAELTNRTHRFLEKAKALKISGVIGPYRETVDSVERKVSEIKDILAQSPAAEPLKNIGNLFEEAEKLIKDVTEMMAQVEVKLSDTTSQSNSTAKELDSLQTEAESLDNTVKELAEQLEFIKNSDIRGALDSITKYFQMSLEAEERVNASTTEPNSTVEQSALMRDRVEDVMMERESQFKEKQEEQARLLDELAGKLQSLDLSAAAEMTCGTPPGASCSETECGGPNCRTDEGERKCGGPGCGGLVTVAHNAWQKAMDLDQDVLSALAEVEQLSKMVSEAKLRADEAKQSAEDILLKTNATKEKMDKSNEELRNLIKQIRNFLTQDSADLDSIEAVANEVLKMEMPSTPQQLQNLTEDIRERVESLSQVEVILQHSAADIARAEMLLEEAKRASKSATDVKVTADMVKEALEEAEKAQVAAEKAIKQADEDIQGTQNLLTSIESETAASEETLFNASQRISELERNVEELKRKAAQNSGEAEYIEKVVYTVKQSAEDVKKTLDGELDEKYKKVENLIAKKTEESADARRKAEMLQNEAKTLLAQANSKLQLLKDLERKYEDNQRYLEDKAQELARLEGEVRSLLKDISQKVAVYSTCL
# T4 sequence (P11047 34-1609 limits assumed, chain 3 of 3): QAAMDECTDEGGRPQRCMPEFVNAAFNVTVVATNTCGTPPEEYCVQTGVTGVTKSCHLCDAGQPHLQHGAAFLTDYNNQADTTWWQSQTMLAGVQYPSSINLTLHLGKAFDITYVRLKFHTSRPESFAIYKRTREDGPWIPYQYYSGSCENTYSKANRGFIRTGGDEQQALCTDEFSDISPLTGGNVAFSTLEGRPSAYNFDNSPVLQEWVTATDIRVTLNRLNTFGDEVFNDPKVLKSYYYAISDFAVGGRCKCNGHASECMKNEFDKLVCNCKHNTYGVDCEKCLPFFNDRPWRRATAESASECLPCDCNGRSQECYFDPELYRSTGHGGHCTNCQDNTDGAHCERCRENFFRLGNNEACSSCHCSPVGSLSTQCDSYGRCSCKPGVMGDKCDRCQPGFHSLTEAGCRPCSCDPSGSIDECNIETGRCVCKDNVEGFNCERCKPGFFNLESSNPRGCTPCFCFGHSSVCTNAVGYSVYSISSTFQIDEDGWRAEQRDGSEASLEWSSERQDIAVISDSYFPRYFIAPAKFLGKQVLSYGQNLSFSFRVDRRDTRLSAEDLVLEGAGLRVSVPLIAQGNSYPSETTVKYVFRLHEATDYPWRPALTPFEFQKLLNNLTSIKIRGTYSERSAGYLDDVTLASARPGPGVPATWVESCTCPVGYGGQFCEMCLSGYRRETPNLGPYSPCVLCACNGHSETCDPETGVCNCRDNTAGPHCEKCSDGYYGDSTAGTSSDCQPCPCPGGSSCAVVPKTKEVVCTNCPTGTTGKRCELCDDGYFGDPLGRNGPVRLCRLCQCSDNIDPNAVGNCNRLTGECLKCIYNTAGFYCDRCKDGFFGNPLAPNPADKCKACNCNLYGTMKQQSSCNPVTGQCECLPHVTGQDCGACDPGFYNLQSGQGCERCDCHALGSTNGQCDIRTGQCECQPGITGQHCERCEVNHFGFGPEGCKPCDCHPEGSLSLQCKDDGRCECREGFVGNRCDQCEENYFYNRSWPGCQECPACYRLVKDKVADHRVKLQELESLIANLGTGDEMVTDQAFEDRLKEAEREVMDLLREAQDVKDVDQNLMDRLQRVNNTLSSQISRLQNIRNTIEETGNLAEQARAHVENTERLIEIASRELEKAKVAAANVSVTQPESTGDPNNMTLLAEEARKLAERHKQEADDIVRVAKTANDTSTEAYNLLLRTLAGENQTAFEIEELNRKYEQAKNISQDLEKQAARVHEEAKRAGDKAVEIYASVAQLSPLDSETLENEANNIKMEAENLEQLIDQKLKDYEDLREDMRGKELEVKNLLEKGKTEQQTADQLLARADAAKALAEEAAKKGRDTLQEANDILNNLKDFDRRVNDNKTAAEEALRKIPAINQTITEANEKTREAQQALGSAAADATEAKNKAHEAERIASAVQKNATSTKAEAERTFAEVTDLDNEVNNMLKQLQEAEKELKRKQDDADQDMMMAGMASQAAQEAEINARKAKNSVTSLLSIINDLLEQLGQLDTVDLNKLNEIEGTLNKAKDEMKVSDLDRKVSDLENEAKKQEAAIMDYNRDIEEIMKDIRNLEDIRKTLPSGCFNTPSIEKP
binding result [2],binding result [3],binding result [4],binding result (recombinant laminin 411 [5]),binding result [6],Binder,further results
–,–,–,–,–,B1,binding result [1]: no binding
binds,binds,no binding (tested: 5 ug/ml),binds,–,B2,–
binds,binds,no binding (tested: 5 ug/ml),binds,–,B3,–
–,–,–,–,binds,B4,–
–,–,–,–,binds,B5,binding result (recombinant laminin 411 [7]): binds
